Values quoted from earlier work, collected in publication PMC4479967 (Journal of molecular neuroscience : MN, 2015).

Conditions: Src-dependent; ref Daulhac et al., 1999

B1: CCK: cholecystokinin (peptide, UniProt P06307 21-115, looked up)
Cholecystokinin: QPVPPADPAGSGLQRAEEAPRRQLRVSQRTDGESRAHLGALLARYIQQARKAPSGRMSIVKNLQNLDPSHRISDRDYMGWMDFGRRSAEEYEYPS
- Effect on ERK-1 and p85/p110-PI-3-K: causes activation
